# Residue numbers refer to the chain shown, from its start.
# B1: PR005570 (antibody, human IgG1, V domains shown)
# VH: EVQLVETGGGLIQPGGSLRLSCAASGFNVSFYYMSWVRQAPGKGREWVSIIDKGGSTYYGDSVKGRFTISRDNSKNRLYLQMNSLRAEDTAMYYCARATEVREKNGYNYPFNYWGQGTLVTVSS
# notes: no light chain; also called anti-PD1 PR002481R2M1_H3 HCAb hIgG1
# B2: PR005571 (antibody, human IgG1, V domains shown)
# VH: B1 VH with G60A, N105Q
# notes: no light chain; also called anti-PD1 PR002481Com_31 HCAb hIgG1
# B3: PR005574 (antibody, human IgG1, V domains shown)
# VH: B1 VH with F31S, Y32H, G54A, T57G, G60A, N105Q
# notes: no light chain; also called anti-PD1 PR002481R2M1_F1 HCAb hIgG1
# B4: PR005584 (antibody, human IgG1, V domains shown)
# VH: B1 VH with F31S, Y32F, G54A, G60A, N105Q
# notes: no light chain; also called anti-PD1 PR002481Com_30 HCAb hIgG1
# B5: PR005573 (antibody, human IgG1, V domains shown)
# VH: B1 VH with F31S, Y32H, G54A, T57G, G60A, D61A
# notes: no light chain; also called anti-PD1 PR002481R2M3_D1 HCAb hIgG1
# B6: PR005581 (antibody, human IgG1, V domains shown)
# VH: B1 VH with F31S, Y32F, G54A, D61A, N105Q
# notes: no light chain; also called anti-PD1 PR002481R2M1_A1 HCAb hIgG1
# B7: PR005582 (antibody, human IgG1, V domains shown)
# VH: B1 VH with S30A, F31S, Y32F, G54A, D61A, N105Q
# notes: no light chain; also called anti-PD1 PR002481Com_28 HCAb hIgG1
# B8: PR000679 (antibody, human IgG4 S228P, kappa, V domains shown)
# VH: QVQLVQSGTEVKKPGSSVKVSCKASGGTFSSYAISWVRQAPGQGLEWMGGIIPIFDTVSSAQKFQGRVTITADKSTSTAYMELFSLRSEDTAVYYCARSPPYSSNWYQYFQHWGQGTLVTVSS
# VL: DIQMTQSPSTLSASVGDRVTITCRASQTISIWLAWYQQKPGKAPKLLIYKASSLESGVPSRFSGSGSGTEFTLTISSLQPDDFATYYCQQFNSYWTFGQGTKVEIKR
# notes: Fully human recombinant H2L2 antibody, human IgG4, kappa light chain; also called 4004_6C11C6
# B9: PR000673 (antibody, human IgG4 S228P, kappa, V domains shown)
# VH: QVQLVESGGGVVQPGRSLRLSCAASGFIFSNYGMHWVRQAPGKGLEWVAVIWYDGSKKYYGDSVKGRFTISRDNSKNTLYLQMNSLRDEDTAVYFCARNDDYWGQGTLVTVSS
# VL: EIVLTQSPATLSFSPGERATLSCRASQSVSSDLAWYQQKPGQAPSLLIYDASNRATGIPARFSGSGSGTDFTLTISSLEPEDFAVYYCHQRNNWPLTFGGGTKVEIKR
# notes: Fully human recombinant H2L2 antibody, human IgG4, kappa light chain; also called 4004_10H9A12
# B10: PR000677 (antibody, human IgG4 S228P, kappa, V domains shown)
# VH: QVQLQQSGPGLVKPSQTLSLTCAISGDSVSSNSAAWNWIRQSPSRGLEWLGRTYYRSKWYSDYGISVNSRITVNPDTSKNLFSLQLNPVTPEDTAVYYCTRETHYYGSGSYLDYWSQGTLVTVSS
# VL: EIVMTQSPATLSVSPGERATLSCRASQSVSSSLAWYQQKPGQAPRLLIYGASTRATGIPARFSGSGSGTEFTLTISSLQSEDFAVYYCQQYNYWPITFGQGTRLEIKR
# notes: Fully human recombinant H2L2 antibody, human IgG4, kappa light chain; also called 4004_33B9E4
# B11: PR005585 (antibody, human IgG1, V domains shown)
# VH: B1 VH with N28T, F31S, Y32F, G54A, G60A, N105Q
# notes: no light chain; also called anti-PD1 PR002481Com_35 HCAb hIgG1
# B12: PR005583 (antibody, human IgG1, V domains shown)
# VH: B1 VH with S30A, F31S, Y32F, G54A, G60A, N105Q
# notes: no light chain; also called anti-PD1 PR002481Com_29 HCAb hIgG1
# B13: PR000676 (antibody, human IgG4 S228P, kappa, V domains shown)
# VH: QIQLVESGGGVVQPGRSLRLSCAASGFTLSSYGMHWVRQAPGKGLEWVAVILSDGSNKYYADSVKGRFTISRDNSKNTLYLQMNSLRAEDTAVYYCADLGGDVWGQGTTVTVSS
# VL: B9 VL with F13L, D32Y, S45R, N53T, H89Q, N92S
# notes: Fully human recombinant H2L2 antibody, human IgG4, kappa light chain; also called 4004_1A7A1
# Molecular target: T1, Human PD-1 expressed on CHO-K1 cells (CHO-K1/hPD-1) (human, UniProt Q15116 25-288)
# T1 construct: whole, on cells; also called CHO-K1 cells overexpressing human PD-1
# Assay: FACS, CHO-K1/hPD-1 cells
# T1 sequence (Q15116 25-288): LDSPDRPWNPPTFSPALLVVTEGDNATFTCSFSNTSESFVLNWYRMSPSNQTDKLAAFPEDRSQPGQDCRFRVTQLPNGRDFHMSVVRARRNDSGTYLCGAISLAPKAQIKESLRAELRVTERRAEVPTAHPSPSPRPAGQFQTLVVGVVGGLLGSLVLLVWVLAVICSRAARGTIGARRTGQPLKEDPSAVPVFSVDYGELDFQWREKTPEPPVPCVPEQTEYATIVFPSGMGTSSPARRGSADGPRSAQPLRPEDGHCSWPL
EC50 [nM],Maximum (MFI),Binder
6.54,3.18e+06,B1
6.55,2.95e+06,B2
3.91,2.82e+06,B3
4.02,3.02e+06,B4
4.73,3.08e+06,B5
7.31,3.16e+06,B6
8.62,3.3e+06,B7

# Molecular target: T1, Human PD-1 expressed on CHO-K1 cells …
# Assay: FACS blocking of biotin-labeled human PD-L2 binding to CHO-K1-hPD-1 cells
# Method: (§1) Briefly, the CHO-K1-hPD-1 cells were digested and resuspended in an F-12K complete medium, and the cell density was adjusted to 1×10⁶ cells/mL. The cells were seeded in a 96-well V-bottom plate (Corning, Cat#3894) at 100 μL/well, followed by the addition of the test antigen-binding proteins with concentrations 2-fold of final concentrations obtained by 3-fold or 5-fold gradient dilution were each added at 100 μL/well. The mixtures were well mixed. The maximum final concentration of the antigen-binding proteins was 100 nM or 300 nM. A total of 8 concentrations were set. hIgG was used as a control. The cells were incubated at 4° C. for 1 h away from light. […] The cells were incubated at 4° C. away from light for 30 min. The cells in each well were rinsed twice with 100 μL of pre-cooled PBS, and centrifuged at 500 g at 4° C. for 5 min, and then the supernatant was discarded. A fluorescent secondary antibody (PE Streptavidin, BD, Cat# 554061, 1:200) was added at 100 μL/well, and the cells were incubated at 4° C. away from light for 30 min. The cells in each well were rinsed twice with 200 μL of pre-cooled PBS, and centrifuged at 500 g at 4° C. for 5 min, and then the supernatant was discarded. Finally, the cells in each well were resuspended in 200 μL of pre-cooled PBS, the fluorescence signal values were read using a BD FACS CANTOII, and the IC₅₀ values were calculated.
IC50 [nM],Maximum inhibition rate (%),Binder
3.38,80.1,B8
1.55,90.3,B9
4.52,14,B10

# Molecular target: T2, Human PD-1 protein with histidine and avi tags (ACRO Biosystems, PD1-H82E4) (human, UniProt Q15116 25-167)
# T2 construct: Captured on streptavidin (SA) sensors in the BLI assay; not shown: histidine and avi tags
# Assay: BLI (Octet Red96e), PD-1 captured on SA sensor, 1:1 local fit
# Method: Human PD-1 proteins with histidine and avi tags were purchased from the manufacturer ACRO Biosystems (Cat#: PD1-H82E4), and the assay buffer was 1× kinetics buffer (diluted from 10× kinetics buffer (ForteBio, Cat#: 18-1105)) for kinetic assay and dilution of antigens and antibodies. The binding kinetics between the antigen and the antibody was analyzed by the biolayer interferometry (BLI) technique using an Octet molecular interaction analyzer (ForteBio, model: Octet Red96e).
# When the binding kinetics between the antigen and the antibody was determined, the rotation speed of the sensor was set at 1000 rpm/min. The eight SA sensors placed in a column were first equilibrated in an assay buffer for 10 min and then used to capture PD-1 at a capture height of 0.5 nm. Thereafter, the SA sensors were equilibrated in the assay buffer for 100 s, and then were associated with each antibody diluted to a single concentration and with a row of blank buffer wells for 180 s, followed by dissociation for 600 s. A new column of SA sensors were used in each cycle.
# When data analysis was performed using Octet Data Analysis software (Fortebio, version 11.0), the reference signals were subtracted by a single reference mode (reference well), the data were fitted by a “1:1 Local fitting” method, and the kinetic parameters of the binding of the antigen to the antibody were calculated to obtain kon (1/Ms) values, kdis (1/s) values and KD (M) values.
# T2 sequence (Q15116 25-167 limits assumed): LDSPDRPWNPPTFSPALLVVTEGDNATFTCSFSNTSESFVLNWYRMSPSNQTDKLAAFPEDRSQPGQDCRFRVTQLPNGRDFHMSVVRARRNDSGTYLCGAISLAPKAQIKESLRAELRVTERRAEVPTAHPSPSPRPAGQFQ
Kd [nM],koff [s⁻¹],kon [M⁻¹ s⁻¹],Binder
3.08,2.22e-05,13200,B11
1.69,1.65e-05,8280,B12

# Molecular target: T1, Human PD-1 expressed on CHO-K1 cells …
# Assay: FACS blocking of biotin-labeled human PD-L1 binding to CHO-K1-hPD-1 cells
# Method: as §1
IC50 [nM],Maximum inhibition rate (%),Binder
0.437,40.2,B8
0.402,45.6,B9
25.6,76,B13
3.4,31.2,B10

# Molecular target: T1, Human PD-1 expressed on CHO-K1 cells …
# Assay: FACS, CHO-K1/hPD-1 cells
# Remark: another data set of the same source
# Method: (§2) In order to investigate the in vitro binding activity of the PD-1 antigen-binding proteins to human/cynomolgus monkey PD-1, the binding assay at the cellular level was performed using a CHO-K1 cell strain overexpressing human or cynomolgus monkey PD-1 (CHO-K1/hPD-1 or CHO-K1/cyno PD-1, from GenScript). Briefly, the CHO-K1-hPD-1 cells were digested and resuspended in an F-12K complete medium, and the cell density was adjusted to 1×10⁶ cells/mL. The cells were seeded in a 96-well V-bottom plate (Corning, Cat#3894) at 100 μL/well, followed by the addition of the test antigen-binding proteins with concentrations 2-fold of final concentrations obtained by 5-fold gradient dilution were each added at 100 μL/well. The mixtures were well mixed. The maximum final concentration of the antigen-binding proteins was 100 nM or 300 nM. A total of 8-11 concentrations were set. hIgG was used as a control. The cells were incubated at 4° C. for 1 h away from light. Thereafter, the cells in each well were rinsed twice with 100 μL of pre-cooled PBS, and centrifuged at 500 g at 4° C. for 5 min, and then the supernatant was discarded. Then 100 μL of a fluorescent secondary antibody (goat anti-human IgG (H+L) secondary antibody, Alexa Fluor® 488 conjugate, Invitrogen, Cat #A11013, 1:1000) was added to each well. The plate was incubated away from light at 4° C. for 30 min. The cells in each well were rinsed twice with 200 μL of pre-cooled PBS, and centrifuged at 500 g at 4° C. for 5 min, and then the supernatant was discarded. Finally, the cells in each well were resuspended in 200 μL of pre-cooled PBS, and the fluorescence signal values were read using a BD FACS CANTOII.
EC50 [nM],MFI Maximum,Binder
4.76,1.57e+06,B9
10.2,2.16e+06,B13
2.1,1.87e+06,B10

# Molecular target: T3, Cynomolgus monkey PD-1 expressed on CHO-K1 cells (CHO-K1/cyno PD-1) (cynomolgus monkey, UniProt B0LAJ3 25-288)
# T3 construct: also called CHO-K1 cells overexpressing cynomolgus monkey PD-1
# Assay: FACS, CHO-K1/cyno PD-1 cells
# Method: as §2
# T3 sequence (B0LAJ3 entry or part of it limits assumed): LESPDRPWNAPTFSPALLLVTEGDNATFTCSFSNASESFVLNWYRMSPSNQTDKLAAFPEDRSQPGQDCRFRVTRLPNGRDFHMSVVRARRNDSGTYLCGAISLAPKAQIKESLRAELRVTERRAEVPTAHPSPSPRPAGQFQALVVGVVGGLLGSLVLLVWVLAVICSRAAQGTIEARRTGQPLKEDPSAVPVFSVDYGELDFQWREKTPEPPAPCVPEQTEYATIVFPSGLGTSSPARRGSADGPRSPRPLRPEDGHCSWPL
EC50 [nM],MFI Maximum,Binder
1.58,24800,B8
2.04,38200,B9
8.34,39000,B13
2.86,34500,B10

# Molecular target: T1, Human PD-1 expressed on CHO-K1 cells …
# Assay: FACS, CHO-K1/hPD-1 cells
# Remark: another data set of the same source
EC50 [nM],Maximum (MFI),Binder
7.83,3.11e+06,B11
4.79,2.76e+06,B12

# Molecular target: T4, Human PD-1-His protein (ACROBiosystems, # PD1-H5221) (human, UniProt Q15116 25-167)
# T4 construct: Bought reagent, coated on the ELISA plate; also called human PD-1 protein; human PD-1 antigen; not shown: His tag
# Assay: ELISA, plate-coated human PD-1-His
# Method: Human PD-1-His protein (ACROBiosystems, # PD1-H5221) was diluted to 2 μg/mL with PBS, added to a 96-well plate (Corning, cat#9018) at 100 μL/well, and incubated at 4° C. overnight. After the liquid was discarded, the plate was washed 3 times with PBST buffer (pH 7.4, containing 0.05% Tween-20), and 250 μL of 2% BSA blocking buffer was added. The plate was incubated at 37° C. for 1 h. The blocking buffer was discarded, and the plate was washed 3 times with PBST buffer (pH 7.4, containing 0.05% Tween-20). The test antigen-binding protein was 5-fold diluted in sequence at an initial concentration of 100 nM for a total of 8-10 concentration gradients, and added at 100 μL/well. The plate was incubated at 37° C. for 1 h. An isotype antibody was taken as a control. After the plate was washed 3 times with PBST buffer (pH 7.4, containing 0.05% Tween-20), a 4000-fold diluted goat anti-human HRP secondary antibody (Invitrogen, #A18805) was added. The plate was incubated away from light at 37° C. for 1 h. After the plate was washed 3 times with PBST buffer (pH 7.4, containing 0.05% Tween-20), TMB (Biopanda, # TMB-S-003) was added at 100 μL/well. The plate was left away from light at room temperature for about 5 min. The reactions were terminated by adding 50 μL of stop buffer (BBI life sciences, #E661006-0200) to each well, and the absorbance values at 450 nm (OD450) were measured using a microplate reader (PerkinElemer, #Enspire). The half maximal effective concentration (EC₅₀) was calculated from the measurement results.
# T4 sequence (Q15116 25-167 limits assumed): as the sequence (Q15116 25-167 limits assumed) above
EC50 [nM],OD Maximum,Binder
0.102,3.31,B8
0.066,3.09,B9
0.121,3.32,B13
0.078,3.27,B10

# Source: patent US20240034792A1 (HARBOUR BIOMED SHANGHAI, published 2024)
